Source: PMC6405930, “Conservation of the Amyloid Interactome Across Diverse Fibrillar Structures” (Scientific Reports, 2019)

B1: Inter-α-trypsin inhibitor heavy chain H2: plasma protein bound to fibrils (protein, UniProt P19823 55-702, looked up)
Inter-alpha-trypsin inhibitor …: SLPGESEEMMEEVDQVTLYSYKVQSTITSRMATTMIQSKVVNNSPQPQNVVFDVQIPKGAFISNFSMTVDGKTFRSSIKEKTVGRALYAQARAKGKTAGLVRSSALDMENFRTEVNVLPGAKVQFELHYQEVKWRKLGSYEHRIYLQPGRLAKHLEVDVWVIEPQGLRFLHVPDTFEGHFDGVPVISKGQQKAHVSFKPTVAQQRICPNCRETAVDGELVVLYDVKREEKAGELEVFNGYFVHFFAPDNLDPIPKNILFVIDVSGSMWGVKMKQTVEAMKTILDDLRAEDHFSVIDFNQNIRTWRNDLISATKTQVADAKRYIEKIQPSGGTNINEALLRAIFILNEANNLGLLDPNSVSLIILVSDGDPTVGELKLSKIQKNVKENIQDNISLFSLGMGFDVDYDFLKRLSNENHGIAQRIYGNQDTSSQLKKFYNQVSTPLLRNVQFNYPHTSVTDVTQNNFHNYFGGSEIVVAGKFDPAKLDQIESVITATSANTQLVLETLAQMDDLQDFLSKDKHADPDFTRKLWAYLTINQLLAERSLAPTAAAKRRITRSILQMSLDHHIVTPLTSLVIENEAGDERMLADAPPQDPSCCSGALYYGSKVVPDSTPSWANPSPTPVISMLAQGSQVLESTPPPHVMRVEND
B2: Ig α-1 chain C region: plasma/CSF protein bound to fibrils (protein, UniProt P01876 1-398, looked up)
Immunoglobulin heavy constant …: ASPTSPKVFPLSLCSTQPDGNVVIACLVQGFFPQEPLSVTWSESGQGVTARNFPPSQDASGDLYTTSSQLTLPATQCLAGKSVTCHVKHYTNPSQDVTVPCPVPSTPPTPSPSTPPTPSPSCCHPRLSLHRPALEDLLLGSEANLTCTLTGLRDASGVTFTWTPSSGKSAVQGPPERDLCGCYSVSSVLPGCAEPWNHGKTFTCTAAYPESKTPLTATLSKSGNTFRPEVHLLPPPSEELALNELVTLTCLARGFSPKDVLVRWLQGSQELPREKYLTWASRQEPSQGTTTFAVTSILRVAAEDWKKGDTFSCMVGHEALPLAFTQKTIDRLADWQMPPPYVVLDLPQETLEEETPGANLWPTTITFLTLFLLSLFYSTALTVTSVRGPSGNREGPQY
B3: Complement C1r subcomponent: plasma protein bound to fibrils (protein, UniProt P00736 18-705, looked up)
Complement C1r subcomponent: SIPIPQKLFGEVTSPLFPKPYPNNFETTTVITVPTGYRVKLVFQQFDLEPSEGCFYDYVKISADKKSLGRFCGQLGSPLGNPPGKKEFMSQGNKMLLTFHTDFSNEENGTIMFYKGFLAYYQAVDLDECASRSKSGEEDPQPQCQHLCHNYVGGYFCSCRPGYELQEDTHSCQAECSSELYTEASGYISSLEYPRSYPPDLRCNYSIRVERGLTLHLKFLEPFDIDDHQQVHCPYDQLQIYANGKNIGEFCGKQRPPDLDTSSNAVDLLFFTDESGDSRGWKLRYTTEIIKCPQPKTLDEFTIIQNLQPQYQFRDYFIATCKQGYQLIEGNQVLHSFTAVCQDDGTWHRAMPRCKIKDCGQPRNLPNGDFRYTTTMGVNTYKARIQYYCHEPYYKMQTRAGSRESEQGVYTCTAQGIWKNEQKGEKIPRCLPVCGKPVNPVEQRQRIIGGQKAKMGNFPWQVFTNIHGRGGGALLGDRWILTAAHTLYPKEHEAQSNASLDVFLGHTNVEELMKLGNHPIRRVSVHPDYRQDESYNFEGDIALLELENSVTLGPNLLPICLPDNDTFYDLGLMGYVSGFGVMEEKIAHDLRFVRLPVANPQACENWLRGKNRMDVFSQNMFCAGHPSLKQDACQGDSGGVFAVRDPNTDRWVATGIVSWGIGCSRGYGFYTKVLNYVDWIKKEMEEED

What was measured:
FAS4-AD aggregates [1] = test system: T1, FAS4-AD aggregates; assay: Fibril incubation with plasma, quantitative MS/MS of bound proteins; assay type: binding, human; set-up: key to Identification status of plasma protein bound: FAS4-AD: *: Identified, but not quantified; —: Not identified in any of the samples; settings: for Identification status of plasma protein bound: FAS4-AD: symbol cells
T1 construct: aggregates of a mutated version of the FAS1-4 domain of TGFBIp
Description: (§1) Plasma and CSF solutions were centrifuged (40,000 g, 20 min) to remove any aggregates. The protein concentration was determined using 280 nm absorbance assuming 1 Abs = 1 mg/mL. […] Control samples (without fibril material) were prepared similarly. All samples were incubated at room temperature for one hour under gentle agitation. Fibrils and fibril-bound proteins were pelleted by centrifugation at 17,000 g for 30 minutes. The supernatant (175 μL) was removed and the aggregate was re-suspended in 175 μL PBS and pelleted again before further preparation for gel analysis and spin-filter assisted digest for quantitative MS/MS.
(§2) The fibril-protein pellets were transferred to spin-filters (0.22 μm), washed twice in PBS (100 μL) and once in 1 M NaCl (100 μL). The fibrils and fibril-bound proteins were dissolved by one-hour incubation in 100 μL 6 M guanidinium chloride followed by elution from the spin-filter. The eluted proteins were loaded onto a 3 kDa MWCO filter unit for filter-assisted unfolding, reduction, alkylation, and trypsin digestion. In brief, samples were washed twice in 8 M urea, once in 8 M urea with 50 mM DTT, once in 8 M urea with 50 mM iodoaceteamide, and twice in 8 M Urea. The filter units were dried by centrifugation (14,000 g in 30 minutes) after every addition. Trypsin digestion was carried out with 0.25 μg sequencing grade trypsin from Sigma Aldrich in 50 mM ammonium bicarbonate overnight at 37 °C. The tryptic peptides were collected by centrifugation, acidified with TFA (0.1%) and micro-purified using POROS R2 column material (Applied Biosystems) packed in P200 pipette tips (Sarstedt).
(§3) LC-MS/MS analyses were performed on an EASY-nLC II system (Thermo Fisher Scientific) connected to a TripleTOF 5600+ mass spectrometer (Sciex) equipped with a NanoSpray III source (Sciex) and operated under Analyst TF 1.6.0 control.
(§4) The micro-purified tryptic peptides were dissolved in 0.1% formic acid, injected and trapped on an in-house packed trap column (2 cm × 100 μm I.D) with RP ReproSil-Pur C18-AQ 3 μm resin (Dr. Maisch GmbH). Peptides were eluted from the trap column and separated on a 15 cm analytical column (75 μm i.d.) packed in-house in a pulled emitter with RP ReproSil-Pur C18-AQ 3 μm resin (Dr. Maisch GmbH). Elution from the analytical column was performed with a linear gradient from 5% to 35% phase B (90% acetonitrile with 0.1% formic acid) over 20 min for protein identification and 50 min for quantitative analysis, respectively.
(§5) All samples were analysed three times, yielding nine MS/MS experiments for each fibril for both plasma and CSF. For the area-based extracted ion chromatogram (XIC) quantification, the acquisition method was set up as an information-dependent acquisition (IDA) experiment collecting up to 25 MS/MS spectra in each 1.6 sec cycle using an exclusion window of 6 sec.
(§6) XIC quantification was based on the average ion intensity of the three most abundant peptides for each protein. Only proteins quantified in at least four out of nine MS/MS experiments per fibril were included in the quantification. The total ion scores were visualized after grouping the proteins according to function (Figure S11).
(§7) For each MS/MS experiment, the ion intensities of the individual proteins were normalized to the total ion intensity of that MS/MS experiment to achieve a relative protein composition. The contribution of each protein was averaged over all nine MS/MS experiments (Tables 1 and 2).

C-36 fibrils [2] = biological target: T2, C-36 fibrils (Homo sapiens, UniProt P01009); assay: as above; assay type: binding; settings: 50:1 w/w plasma protein:fibril
T2 construct: the 36 residue C-terminal fragment of α1-antitrypsin (C-36)
T2 sequence (P01009 383-418 limits assumed): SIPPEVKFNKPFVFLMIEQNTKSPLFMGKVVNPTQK
Description: as §1, §2, §3, §4, §5, §6, §7

Ab2 fibrils [3] = test system: T3, Ab2 fibrils; assay: as above; assay type: binding, human; settings: 50:1 w/w plasma protein:fibril
T3 construct: Two structurally distinct fibrils of the Aβ(1–40) peptide associated with AD
Description: as §1, §2, §3, §4, §5, §6, §7

glucagon fibrils [4] = biological target: T4, glucagon fibrils (Homo sapiens, UniProt P01275); assay: as above; assay type: binding; settings: 50:1 w/w plasma protein:fibril
T4 construct: fibrils of the peptide hormone glucagon
T4 sequence (P01275 53-81 limits assumed): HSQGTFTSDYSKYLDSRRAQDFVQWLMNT
Description: as §1, §2, §3, §4, §5, §6, §7

Ab1 fibrils [5] = test system: T5, Ab1 fibrils; assay: as above; assay type: binding, human; settings: 50:1 w/w plasma protein:fibril
T5 construct: Synthetic amyloid β peptide 1–40 was purchased from Caslo Aps (Lyngby, Denmark); purchased Caslo Aps (Lyngby, Denmark); host or cells: synthetic peptide
Description: Plasma and CSF solutions were centrifuged (40,000 g, 20 min) to remove any aggregates. The protein concentration was determined using 280 nm absorbance assuming 1 Abs = 1 mg/mL. […] Control samples (without fibril material) were prepared similarly. All samples were incubated at room temperature for one hour under gentle agitation. Fibrils and fibril-bound proteins were pelleted by centrifugation at 17,000 g for 30 minutes. The supernatant (175 μL) was removed and the aggregate was re-suspended in 175 μL PBS and pelleted again before further preparation for gel analysis and spin-filter assisted digest for quantitative MS/MS.
as §2, §3, §4, §5, §6, §7

αSN fibrils [6] = biological target: T6, αSN fibrils (Homo sapiens, UniProt P37840); assay: as above; assay type: binding; set-up: key to Identification status of plasma protein bound: αSN: *: Identified, but not quantified; —: Not identified in any of the samples; settings: for Identification status of plasma protein bound: αSN: symbol cells
Description: as §1, §2, §3, §4, §5, §6, §7

C-36 fibrils [7] = biological target: T2, C-36 fibrils; assay: Fibril incubation with CSF, quantitative MS/MS of bound proteins; assay type: binding; settings: 4:1 w/w CSF protein:fibril
Ab2 fibrils [8] = test system: T3, Ab2 fibrils; assay: as above; assay type: binding, human; set-up: key to Identification status of CSF protein bound: Ab2: *: Identified, but not quantified; —: Not identified in any of the samples; settings: symbol cells
Ab1 fibrils [9] = test system: T5, Ab1 fibrils; assay: as above; assay type: binding, human; set-up: key to Identification status of CSF protein bound: Ab1: *: Identified, but not quantified; —: Not identified in any of the samples; settings: symbol cells
αSN fibrils [10] = biological target: T6, αSN fibrils; assay: as above; assay type: binding; set-up: key to Identification status of CSF protein bound: αSN: *: Identified, but not quantified; —: Not identified in any of the samples; settings: symbol cells
Description: as §1, §2, §3, §4, §5, §6, §7

glucagon fibrils [11] = biological target: T4, glucagon fibrils; assay: as above; assay type: binding; settings: 4:1 w/w CSF protein:fibril
FAS4-AD aggregates [12] = test system: T1, FAS4-AD aggregates; assay: as above; assay type: binding, human; set-up: key to Identification status of CSF protein bound: FAS4-AD: *: Identified, but not quantified; —: Not identified in any of the samples; settings: symbol cells

| Molecule | Identification status of plasma protein bound: FAS4-AD (FAS4-AD aggregates [1]) | Relative composition of plasma proteins bound: C-36 (C-36 fibrils [2]) | Relative composition of plasma proteins bound: Ab2 (Ab2 fibrils [3]) | Relative composition of plasma proteins bound: Glucagon (glucagon fibrils [4]) | Relative composition of plasma proteins bound: Ab1 (Ab1 fibrils [5]) | Identification status of plasma protein bound: αSN (αSN fibrils [6]) | Relative composition of CSF proteins bound: C-36 (C-36 fibrils [7]) | Identification status of CSF protein bound: Ab2 (Ab2 fibrils [8]) | Relative composition of plasma proteins bound: FAS4-AD (FAS4-AD aggregates [1]; 50:1 w/w plasma protein:fibril) | Identification status of CSF protein bound: Ab1 (Ab1 fibrils [9]) | Identification status of CSF protein bound: αSN (αSN fibrils [10]) | Relative composition of CSF proteins bound: Glucagon (glucagon fibrils [11]) | Identification status of CSF protein bound: FAS4-AD (FAS4-AD aggregates [12]) | Relative composition of plasma proteins bound: αSN (αSN fibrils [6]; 50:1 w/w plasma protein:fibril) |
| --- | --- | --- | --- | --- | --- | --- | --- | --- | --- | --- | --- | --- | --- | --- |
| B1 | — | 0.3 ± 0.1 % of total protein | 0.1 ± 0.0 % of total protein | 2.7 ± 0.2 % of total protein | 0.1 ± 0.0 % of total protein | * |  |  |  |  |  |  |  |  |
| B2 |  | 1.4 ± 0.4 % of total protein | 1.3 ± 0.3 % of total protein | 1.7 ± 0.0 % of total protein | 1.3 ± 0.1 % of total protein |  | 0.5 ± 0.1 % of total protein | * | 3.9 ± 1.6 % of total protein | * | — | 0.2 ± 0.1 % of total protein | — | 0.9 ± 0.3 % of total protein |
| B3 | — | 0.3 ± 0.1 % of total protein | 0.4 ± 0.1 % of total protein | 0.1 ± 0.0 % of total protein | 0.2 ± 0.0 % of total protein | * |  |  |  |  |  |  |  |  |
